This is an account of results in FireProtDB (doi:10.1038/12277).

In general, Tm refers to the temperature at which the thermal transition is half complete.

The labels stand for the following.
B1: Ribonuclease HI, P0A7Y4 (parent)
chain: MLKQVEIFTDGSCLGNPGPGGYGAILRYRGREKTFSAGYTRTTNNRMELMAAIVALEALKEHCEVILSTDSQYVRQGITQWIHNWKKRGWKTADKKPVKNVDLWQRLDAALGQHQIKWEWVKGHAGHPENERCDELARAAAMNPTLEDTGYQVEV

The series covers variants of B1. Particulars: Escherichia coli (strain K12), pH 5.5, CD, Potassium phosphate 2 mM, KF 5 mM, reversible: yes, structure 2RN2, whole UniProt chain shown; for Tm / change of melting temperature, mutant - wild type (higher = more stable): Thermal; for ddG of mutation (higher = less stable) / denaturant m value / unfolding free energy: 25 °C, Urea.

Consider MLKQVEIFTDGSCLGNPGPGGYGAILRYRGREKTFSAGYTRTTNNRMELMAAAVALEALKEHCEVILSTDSQYVRQGITQWIHNWKKRGWKTADKKPVKNVDLWQRLDAALGQHQIKWEWVKGHAGHPENERCDELARAAAMNPTLEDTGYQVEV, for which the Tm was 35.7 °C and the “change of melting temperature, mutant - wild type (higher = more stable)” value (shortened to “change of melting temperature, mutant”) is -12.1 °C.
MLKQVEIFTDGSCLGNPGPGGYGAILRYRGREKTFSAGYTRTTNNRMELMAAIVALEALKEHCEVILSTDSQYVRQGITQWIHNWKKRGWKTADKKPVKNVDLWGRLDAALGQHQIKWEWVKGHAGHPENERCDELARAAAMNPTLEDTGYQVEV: the “ddG of mutation (higher = less stable)” value was 2.2 kcal/mol, the denaturant m value is 2.1 kcal/mol/M, the unfolding free energy came to 7.5 kcal/mol and the Tm is 38.2 °C. Moreover, the “change of melting temperature, mutant” value is -9.6 °C.
Regarding MLKQVEIFTAGSCLGNPGPGGYGAILRYRGREKTFSAGYTRTTNNRMELMAAIVALEALKEHCEVILSTDSQYVRQGITQWIHNWKKRGWKTADKKPVKNVDLWQRLDAALGQHQIKWEWVKGHAGHPENERCDELARAAAMNPTLEDTGYQVEV, the “ddG of mutation (higher = less stable)” value was -3.3 kcal/mol, the denaturant m value was 2.1 kcal/mol/M, the unfolding free energy was 13 kcal/mol and the Tm was 62.6 °C. Also, the “change of melting temperature, mutant” value was found to be 14.8 °C.
For the variant MLKQVEIFTDGSCLGNPGPGGYGAILAYRGREKTFSAGYTRTTNNRMELMAAIVALEALKEHCEVILSTDSQYVRQGITQWIHNWKKRGWKTADKKPVKNVDLWQRLDAALGQHQIKWEWVKGHAGHPENERCDELARAAAMNPTLEDTGYQVEV, the “ddG of mutation (higher = less stable)” value worked out at 2.2 kcal/mol, the denaturant m value is 2 kcal/mol/M, the unfolding free energy was found to be 7.5 kcal/mol and the Tm was determined as 42.2 °C. The “change of melting temperature, mutant” value is -5.6 °C.
